The results in this text go back to paper PMC4973471 (Nature structural & molecular biology, 2016).

One data set addresses HSF2 DBD (Homo sapiens, UniProt Q03933 8-115). As to the kind of experiment: X-ray crystallography.
The data set “crystal structure” deals with the molecule itself. As to the kind of experiment: crystal structure.

B1: 2-site HSE (dsDNA)
DNA 1: GGTTCTAGAACC
DNA 2: GGTTCTAGAACC
Consider B1, for which the binding result in the data set with HSF2 DBD was “binds”.

B2: human HSF2 DNA-binding domain (amino acids 8–115) (domain or fragment, UniProt Q03933 8-115, looked up)
chain: PAFLSKLWTLVEETHTNEFITWSQNGQSFLVLDEQRFAKEILPKYFKHNNMASFVRQLNMYGFRKVVHIDSGIVKQERDGPVEFQHPYFKQGQDDLLENIKRKVSSSK
As for B2, the binding result in “crystal structure” is given as “binds”.
